In patent US20150344570A1 (published 2015) one finds Ho/Con_3a and He/Con_3a data, which are given here for 26 molecules.

This assay addresses T1, FcγRIIIa extracellular domain with C-terminal His tag (human, UniProt P08637 17-208).
T1 construct: extracellular domain; also called FcgRIIIa; 3a; not shown: His tag attached to the C terminus
Kind of assay: SPR Biacore, captured antibody, FcγR analyte, relative binding. As for the experimental part: Analysis of interaction between objective antibody and the FcγR was carried out using Biacore T100 (GE Healthcare). HBS-EP+ (GE Healthcare) was used as the running buffer, and the measurement temperature was set to 25° C. Chips produced by immobilizing the antigen peptide by the amine coupling method to a Series S Sencor Chip CM5 (GE Healthcare), or alternatively, chips produced by allowing preliminarily biotinylated antigen peptides to interact with and immobilize onto a Series S Sensor Chip SA (certified) (GE Healthcare) were used. Antibodies of interest were captured onto an antigen peptide-immobilized chip, and allowed to interact to each FcγR diluted with running buffer. To regenerate and repeatedly use the chip, the antibodies captured on the chip were washed off by reacting 10 mM glycine-HCl, pH 1.5.
Background: Surface plasmon resonance follows binding to a sensor surface in real time, without labels.

T1 sequence (P08637 17-208): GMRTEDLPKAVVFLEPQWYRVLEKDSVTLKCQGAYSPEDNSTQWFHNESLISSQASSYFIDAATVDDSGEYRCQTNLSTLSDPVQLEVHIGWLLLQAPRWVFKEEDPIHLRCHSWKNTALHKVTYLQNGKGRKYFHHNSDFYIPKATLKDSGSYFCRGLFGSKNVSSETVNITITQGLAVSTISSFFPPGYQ

B1: GpH7-B3 variant I332_15Y/GpL16-k0 (antibody, human IgG1, kappa)
heavy: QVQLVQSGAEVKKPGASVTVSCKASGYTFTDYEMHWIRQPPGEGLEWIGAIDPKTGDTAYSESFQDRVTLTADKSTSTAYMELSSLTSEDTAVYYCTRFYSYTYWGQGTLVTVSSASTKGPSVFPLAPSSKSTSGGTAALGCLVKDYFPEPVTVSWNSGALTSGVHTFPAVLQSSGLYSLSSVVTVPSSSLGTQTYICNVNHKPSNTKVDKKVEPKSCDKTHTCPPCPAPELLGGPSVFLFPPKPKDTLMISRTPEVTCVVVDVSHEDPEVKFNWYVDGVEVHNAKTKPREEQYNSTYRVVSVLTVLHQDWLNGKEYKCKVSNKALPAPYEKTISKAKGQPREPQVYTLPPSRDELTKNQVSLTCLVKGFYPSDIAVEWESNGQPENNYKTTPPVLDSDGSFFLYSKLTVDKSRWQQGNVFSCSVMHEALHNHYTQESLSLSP
light: DIVMTQSPLSLPVTPGEPASISCQASESLVHSNRNTYLHWYLQKPGQSPQLLIYKVSNRFSGVPDRFSGSGSGTDFTLKISRVEAEDVGVYYCSQNTHVPPTFGQGTKVEIERTVAAPSVFIFPPSDEQLKSGTASVVCLLNNFYPREAKVQWKVDNALQSGNSQESVTEQDSKDSTYSLSSTLTLSKADYEKHKVYACEVTHQGLSSPVTKSFNRGEC
notes: also called Ho Ab I332_15Y
For B1, the Ho/Con_3a is 106 % of HoCon Ab GpH7-B3/GpL16-k0 (=100).

B2: GpH7-A5/GpH7-B3 variant K334_01G/GpL16-k0 (antibody, human IgG1, kappa)
heavy 1: not shown
heavy 2: not shown
light: B1 light
notes: also called He Ab K334_01G
Consider B2, for which the He/Con_3a is 121 % of HeCon Ab GpH7-A5/GpH7-B3/GpL16-k0 (=100).

B3: GpH7-B3 variant T335_07I/GpL16-k0 (antibody, human IgG1, kappa)
heavy: not shown
light: B1 light
notes: also called Ho Ab T335_07I
Take B3: the Ho/Con_3a was 107 % of HoCon Ab GpH7-B3/GpL16-k0 (=100).

B4: GpH7-B3 variant K334_04F/GpL16-k0 (antibody, human IgG1, kappa)
heavy: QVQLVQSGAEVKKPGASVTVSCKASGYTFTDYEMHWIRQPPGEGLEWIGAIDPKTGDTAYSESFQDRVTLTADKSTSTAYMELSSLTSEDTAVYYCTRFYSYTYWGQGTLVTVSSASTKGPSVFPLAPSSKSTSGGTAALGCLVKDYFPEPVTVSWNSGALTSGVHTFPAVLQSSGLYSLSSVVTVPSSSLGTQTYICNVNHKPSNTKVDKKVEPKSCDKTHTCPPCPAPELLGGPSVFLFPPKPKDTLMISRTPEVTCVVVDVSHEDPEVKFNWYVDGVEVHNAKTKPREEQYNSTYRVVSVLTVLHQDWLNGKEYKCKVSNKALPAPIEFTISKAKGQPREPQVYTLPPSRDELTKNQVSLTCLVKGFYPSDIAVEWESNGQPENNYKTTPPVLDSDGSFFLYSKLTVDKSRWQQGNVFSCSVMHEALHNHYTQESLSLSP
light: B1 light
notes: also called Ho Ab K334_04F
Consider B4, for which the Ho/Con_3a is 168 % of HoCon Ab GpH7-B3/GpL16-k0 (=100).

B5: GpH7-B3 variant S298_14T/GpL16-k0 (antibody, human IgG1, kappa)
heavy: not shown
light: B1 light
notes: also called Ho Ab S298_14T
Consider B5, for which the Ho/Con_3a was 107 % of HoCon Ab GpH7-B3/GpL16-k0 (=100).

B6: GpH7-B3 variant S337_10E/GpL16-k0 (antibody, human IgG1, kappa)
heavy: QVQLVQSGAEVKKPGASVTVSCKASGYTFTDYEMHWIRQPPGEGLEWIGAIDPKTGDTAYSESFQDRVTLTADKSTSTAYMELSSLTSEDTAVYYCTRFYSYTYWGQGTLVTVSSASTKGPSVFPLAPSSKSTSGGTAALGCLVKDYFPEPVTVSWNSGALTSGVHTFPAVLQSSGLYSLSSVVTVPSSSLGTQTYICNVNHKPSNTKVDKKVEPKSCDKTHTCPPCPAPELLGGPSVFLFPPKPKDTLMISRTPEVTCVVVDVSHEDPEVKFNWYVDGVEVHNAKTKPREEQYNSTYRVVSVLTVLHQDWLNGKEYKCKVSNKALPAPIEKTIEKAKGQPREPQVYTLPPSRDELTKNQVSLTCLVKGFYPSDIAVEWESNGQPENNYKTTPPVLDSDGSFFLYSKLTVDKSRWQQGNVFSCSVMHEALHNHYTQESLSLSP
light: B1 light
notes: also called Ho Ab S337_10E
With B6, the Ho/Con_3a was 100 % of HoCon Ab GpH7-B3/GpL16-k0 (=100).

B7: GpH7-B3 variant K326_03V/GpL16-k0 (antibody, human IgG1, kappa)
heavy: not shown
light: B1 light
notes: also called Ho Ab K326_03V
For B7, the Ho/Con_3a was 137 % of HoCon Ab GpH7-B3/GpL16-k0 (=100).

B8: GpH7-B3 variant S239_09D/GpL16-k0 (antibody, human IgG1, kappa)
heavy: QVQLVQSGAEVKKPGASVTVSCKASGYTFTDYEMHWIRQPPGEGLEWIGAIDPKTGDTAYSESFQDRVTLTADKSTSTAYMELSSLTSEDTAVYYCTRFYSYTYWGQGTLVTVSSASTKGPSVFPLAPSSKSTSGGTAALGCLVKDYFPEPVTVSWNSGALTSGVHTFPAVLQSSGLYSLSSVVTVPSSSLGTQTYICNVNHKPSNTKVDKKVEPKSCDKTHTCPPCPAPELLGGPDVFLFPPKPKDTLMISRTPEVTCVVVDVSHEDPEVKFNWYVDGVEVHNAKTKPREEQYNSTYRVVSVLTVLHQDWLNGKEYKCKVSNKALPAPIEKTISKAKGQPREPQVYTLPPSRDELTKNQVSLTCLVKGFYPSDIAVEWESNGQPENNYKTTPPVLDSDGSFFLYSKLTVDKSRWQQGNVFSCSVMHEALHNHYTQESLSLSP
light: B1 light
notes: also called Ho Ab S239_09D
In the case of B8, the Ho/Con_3a was 192 % of HoCon Ab GpH7-B3/GpL16-k0 (=100).

B9: GpH7-B3 variant K334_15Y/GpL16-k0 (antibody, human IgG1, kappa)
heavy: not shown
light: B1 light
notes: also called Ho Ab K334_15Y
Consider B9, for which the Ho/Con_3a is 181 % of HoCon Ab GpH7-B3/GpL16-k0 (=100).

B10: GpH7-B3 variant I336_09D/GpL16-k0 (antibody, human IgG1, kappa)
heavy: not shown
light: B1 light
notes: also called Ho Ab I336_09D
As for B10, the Ho/Con_3a is 111 % of HoCon Ab GpH7-B3/GpL16-k0 (=100).

B11: GpH7-B3 variant K326_10E/GpL16-k0 (antibody, human IgG1, kappa)
heavy: not shown
light: B1 light
notes: also called Ho Ab K326_10E
As to B11, the Ho/Con_3a is 157 % of HoCon Ab GpH7-B3/GpL16-k0 (=100).

B12: GpH7-B3 variant I336_18N/GpL16-k0 (antibody, human IgG1, kappa)
heavy: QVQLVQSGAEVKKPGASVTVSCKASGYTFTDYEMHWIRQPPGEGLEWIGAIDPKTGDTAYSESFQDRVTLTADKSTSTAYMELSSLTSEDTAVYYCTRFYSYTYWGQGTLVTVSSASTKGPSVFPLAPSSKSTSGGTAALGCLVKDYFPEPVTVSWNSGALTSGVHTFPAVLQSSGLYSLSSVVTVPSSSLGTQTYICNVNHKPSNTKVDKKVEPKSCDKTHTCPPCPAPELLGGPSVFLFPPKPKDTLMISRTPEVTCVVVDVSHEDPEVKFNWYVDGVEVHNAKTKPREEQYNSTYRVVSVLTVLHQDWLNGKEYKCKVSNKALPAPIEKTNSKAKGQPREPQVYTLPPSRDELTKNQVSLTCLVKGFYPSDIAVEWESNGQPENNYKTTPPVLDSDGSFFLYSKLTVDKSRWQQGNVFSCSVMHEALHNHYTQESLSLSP
light: B1 light
notes: also called Ho Ab I336_18N
As for B12, the Ho/Con_3a is 101 % of HoCon Ab GpH7-B3/GpL16-k0 (=100).

B13: GpH7-B3 variant S267_02A/GpL16-k0 (antibody, human IgG1, kappa)
heavy: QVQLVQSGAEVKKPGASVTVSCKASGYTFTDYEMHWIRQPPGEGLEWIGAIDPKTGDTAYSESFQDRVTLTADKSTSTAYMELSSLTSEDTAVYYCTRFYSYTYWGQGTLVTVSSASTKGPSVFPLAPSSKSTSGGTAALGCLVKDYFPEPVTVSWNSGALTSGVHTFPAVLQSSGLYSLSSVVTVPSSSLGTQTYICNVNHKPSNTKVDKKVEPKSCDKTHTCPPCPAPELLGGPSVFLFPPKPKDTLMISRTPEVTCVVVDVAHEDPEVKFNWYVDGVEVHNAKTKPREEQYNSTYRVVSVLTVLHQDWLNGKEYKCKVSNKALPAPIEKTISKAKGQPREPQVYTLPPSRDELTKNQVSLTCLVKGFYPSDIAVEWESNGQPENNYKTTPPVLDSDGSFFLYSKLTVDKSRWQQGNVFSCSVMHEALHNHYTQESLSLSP
light: B1 light
notes: also called Ho Ab S267_02A
Turning to B13, the Ho/Con_3a was 145 % of HoCon Ab GpH7-B3/GpL16-k0 (=100).

B14: GpH7-A5/GpH7-B3 variant A330_20W/GpL16-k0 (antibody, human IgG1, kappa)
heavy 1: not shown
heavy 2: not shown
light: B1 light
notes: also called He Ab A330_20W
Turning to B14, the He/Con_3a is 104 % of HeCon Ab GpH7-A5/GpH7-B3/GpL16-k0 (=100).

B15: GpH7-B3 variant K334_10E/GpL16-k0 (antibody, human IgG1, kappa)
heavy: not shown
light: B1 light
notes: also called Ho Ab K334_10E
Regarding B15, the Ho/Con_3a was 206 % of HoCon Ab GpH7-B3/GpL16-k0 (=100).

B16: GpH7-B3 variant K334_03V/GpL16-k0 (antibody, human IgG1, kappa)
heavy: not shown
light: B1 light
notes: also called Ho Ab K334_03V
In the case of B16, the Ho/Con_3a was 170 % of HoCon Ab GpH7-B3/GpL16-k0 (=100).

B17: GpH7-A5/GpH7-B3 variant E333_16H/GpL16-k0 (antibody, human IgG1, kappa)
heavy 1: not shown
heavy 2: not shown
light: B1 light
notes: also called He Ab E333_16H
On to B17, for which the He/Con_3a was 103 % of HeCon Ab GpH7-A5/GpH7-B3/GpL16-k0 (=100).

B18: GpH7-B3 variant K334_07I/GpL16-k0 (antibody, human IgG1, kappa)
heavy: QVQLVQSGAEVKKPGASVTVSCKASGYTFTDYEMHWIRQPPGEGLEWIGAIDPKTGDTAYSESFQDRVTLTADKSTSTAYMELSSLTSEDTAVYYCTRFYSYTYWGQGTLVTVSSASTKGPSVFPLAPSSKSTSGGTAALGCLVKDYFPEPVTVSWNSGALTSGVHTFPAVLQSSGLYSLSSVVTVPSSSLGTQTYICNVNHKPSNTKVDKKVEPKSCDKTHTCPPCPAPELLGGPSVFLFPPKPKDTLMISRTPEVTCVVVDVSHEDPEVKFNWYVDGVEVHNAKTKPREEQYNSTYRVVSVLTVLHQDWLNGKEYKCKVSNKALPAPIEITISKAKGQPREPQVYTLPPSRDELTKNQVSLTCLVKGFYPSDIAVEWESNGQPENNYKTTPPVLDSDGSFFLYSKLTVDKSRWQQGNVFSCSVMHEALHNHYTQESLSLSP
light: B1 light
notes: also called Ho Ab K334_07I
As to B18, the Ho/Con_3a was 180 % of HoCon Ab GpH7-B3/GpL16-k0 (=100).

B19: GpH7-B3 variant Q295_02A/GpL16-k0 (antibody, human IgG1, kappa)
heavy: not shown
light: B1 light
notes: also called Ho Ab Q295_02A
In the case of B19, the Ho/Con_3a was 108 % of HoCon Ab GpH7-B3/GpL16-k0 (=100).

B20: GpH7-A5/GpH7-B3 variant A330_04F/GpL16-k0 (antibody, human IgG1, kappa)
heavy 1: not shown
heavy 2: not shown
light: B1 light
notes: also called He Ab A330_04F
On to B20, for which the He/Con_3a is 147 % of HeCon Ab GpH7-A5/GpH7-B3/GpL16-k0 (=100).

B21: GpH7-A5/GpH7-B3 variant H268_10E/GpL16-k0 (antibody, human IgG1, kappa)
heavy 1: not shown
heavy 2: not shown
light: B1 light
notes: also called He Ab H268_10E
In the case of B21, the He/Con_3a is 186 % of HeCon Ab GpH7-A5/GpH7-B3/GpL16-k0 (=100).

B22: GpH7-B3 variant K334_14T/GpL16-k0 (antibody, human IgG1, kappa)
heavy: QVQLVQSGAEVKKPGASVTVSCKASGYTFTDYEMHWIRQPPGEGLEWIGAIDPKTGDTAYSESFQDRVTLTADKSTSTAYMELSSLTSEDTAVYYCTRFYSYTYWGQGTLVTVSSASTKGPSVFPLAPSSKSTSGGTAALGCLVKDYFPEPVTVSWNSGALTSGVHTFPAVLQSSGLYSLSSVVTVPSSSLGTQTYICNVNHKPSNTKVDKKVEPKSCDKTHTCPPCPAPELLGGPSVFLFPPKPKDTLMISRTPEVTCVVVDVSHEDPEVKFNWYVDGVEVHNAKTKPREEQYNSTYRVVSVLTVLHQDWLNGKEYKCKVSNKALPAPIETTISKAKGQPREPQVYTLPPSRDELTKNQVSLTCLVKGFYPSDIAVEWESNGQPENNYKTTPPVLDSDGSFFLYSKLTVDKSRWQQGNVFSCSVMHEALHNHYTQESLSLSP
light: B1 light
notes: also called Ho Ab K334_14T
In the case of B22, the Ho/Con_3a was 163 % of HoCon Ab GpH7-B3/GpL16-k0 (=100).

B23: GpH7-B3 variant K326_04F/GpL16-k0 (antibody, human IgG1, kappa)
heavy: not shown
light: B1 light
notes: also called Ho Ab K326_04F
B23: the Ho/Con_3a is 103 % of HoCon Ab GpH7-B3/GpL16-k0 (=100).

B24: GpH7-B3 variant I332_19Q/GpL16-k0 (antibody, human IgG1, kappa)
heavy: not shown
light: B1 light
notes: also called Ho Ab I332_19Q
On to B24, for which the Ho/Con_3a was 118 % of HoCon Ab GpH7-B3/GpL16-k0 (=100).

B25: GpH7-B3 variant I336_10E/GpL16-k0 (antibody, human IgG1, kappa)
heavy: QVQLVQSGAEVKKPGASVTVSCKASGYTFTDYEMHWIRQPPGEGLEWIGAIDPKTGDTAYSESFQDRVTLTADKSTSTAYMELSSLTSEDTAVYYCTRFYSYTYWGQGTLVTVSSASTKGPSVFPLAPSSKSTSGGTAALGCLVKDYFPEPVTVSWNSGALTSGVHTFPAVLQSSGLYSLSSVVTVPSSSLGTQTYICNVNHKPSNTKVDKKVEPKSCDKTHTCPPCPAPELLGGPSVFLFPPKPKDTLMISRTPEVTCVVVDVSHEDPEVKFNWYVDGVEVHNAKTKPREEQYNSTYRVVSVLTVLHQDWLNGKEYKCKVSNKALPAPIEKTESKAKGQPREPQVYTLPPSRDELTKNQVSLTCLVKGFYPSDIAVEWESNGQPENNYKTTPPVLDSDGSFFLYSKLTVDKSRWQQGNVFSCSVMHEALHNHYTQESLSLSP
light: B1 light
notes: also called Ho Ab I336_10E
Consider B25, for which the Ho/Con_3a is 130 % of HoCon Ab GpH7-B3/GpL16-k0 (=100).

B26: GpH7-B3 variant K334_09D/GpL16-k0 (antibody, human IgG1, kappa)
heavy: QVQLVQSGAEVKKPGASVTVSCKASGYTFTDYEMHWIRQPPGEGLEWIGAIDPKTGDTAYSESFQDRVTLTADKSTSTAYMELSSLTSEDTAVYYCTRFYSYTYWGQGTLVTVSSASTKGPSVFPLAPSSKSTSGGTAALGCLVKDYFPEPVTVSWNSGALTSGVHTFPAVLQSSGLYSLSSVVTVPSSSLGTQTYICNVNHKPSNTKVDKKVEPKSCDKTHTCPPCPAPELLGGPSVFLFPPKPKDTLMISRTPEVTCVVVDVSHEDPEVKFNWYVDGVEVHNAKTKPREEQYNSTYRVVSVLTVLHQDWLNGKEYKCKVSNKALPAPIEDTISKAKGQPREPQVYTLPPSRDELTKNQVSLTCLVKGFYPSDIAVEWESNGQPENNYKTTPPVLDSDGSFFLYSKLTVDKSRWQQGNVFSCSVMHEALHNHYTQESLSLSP
light: B1 light
notes: also called Ho Ab K334_09D
B26: the Ho/Con_3a was 150 % of HoCon Ab GpH7-B3/GpL16-k0 (=100).
